Laboratory results taken from US20260365708 (published 2026).
Residue numbers refer to the chain shown, from its start. In names and notes the source's numbering stands.

T1: hIL10RalphaFc (human, UniProt Q13651)
T1 chain: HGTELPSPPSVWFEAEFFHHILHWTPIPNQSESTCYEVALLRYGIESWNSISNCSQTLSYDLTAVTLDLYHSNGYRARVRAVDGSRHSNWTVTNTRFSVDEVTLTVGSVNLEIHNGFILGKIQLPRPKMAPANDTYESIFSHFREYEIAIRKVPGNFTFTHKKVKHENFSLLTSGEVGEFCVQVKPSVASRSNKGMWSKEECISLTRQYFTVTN

T2: mIL10RalphaFc (mouse, UniProt Q61727)
T2 chain: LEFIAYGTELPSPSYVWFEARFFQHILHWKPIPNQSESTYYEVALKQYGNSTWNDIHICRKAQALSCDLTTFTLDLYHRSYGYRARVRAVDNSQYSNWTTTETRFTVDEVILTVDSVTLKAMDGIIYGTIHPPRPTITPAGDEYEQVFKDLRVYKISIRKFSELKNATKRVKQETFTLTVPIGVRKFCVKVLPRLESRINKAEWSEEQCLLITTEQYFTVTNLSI

B1: hIL10 T100L (protein)
chain: SPGQGTQSENSCTHFPGNLPNMLRDLRDAFSRVKTFFQMKDQLDNLLLKESLLEDFKGYLGCQALSEMIQFYLEEVMPQAENQDPDIKAHVNSLGENLKLLRLRLRRCHRFLPCENKSKAVEQVKNAFNKLQEKGIYKAMSEFDIFINYIEAYMTMKIRN
B2: hIL10 WT (protein)
chain: B1 chain with L100T
B3: h_SS0052_AA (hIL10 WT fused) (protein)
chain: SPGQGTQSENSCTHFPGNLPNMLRDLRDAFSRVKTFFQMKDQLDNLLLKESLLEDFKGYLGCQALSEMIQFYLEEVMPQAENQDPDIKAHVNSLGENLKTLRLRLRRCHRFLPCENKSKAVEQVKNAFNKLQEKGIYKAMSEFDIFINYIEAYMTMKIRNSPGQGTQSENSCTHFPGNLPNMLRDLRDAFSRVKTFFQMKDQLDNLLLKESLLEDFKGYLGCQALSEMIQFYLEEVMPQAENQDPDIKAHVNSLGENLKTLRLRLRRCHRFLPCENKSKAVEQVKNAFNKLQEKGIYKAMSEFDIFINYIEAYMTMKIRN
B4: h_SS0053_AA (hIL10 T100L fused) (protein)
chain: SPGQGTQSENSCTHFPGNLPNMLRDLRDAFSRVKTFFQMKDQLDNLLLKESLLEDFKGYLGCQALSEMIQFYLEEVMPQAENQDPDIKAHVNSLGENLKLLRLRLRRCHRFLPCENKSKAVEQVKNAFNKLQEKGIYKAMSEFDIFINYIEAYMTMKIRNSPGQGTQSENSCTHFPGNLPNMLRDLRDAFSRVKTFFQMKDQLDNLLLKESLLEDFKGYLGCQALSEMIQFYLEEVMPQAENQDPDIKAHVNSLGENLKLLRLRLRRCHRFLPCENKSKAVEQVKNAFNKLQEKGIYKAMSEFDIFINYIEAYMTMKIRNGGSHHHHHHHH
B5: WC163_AA (mIL10 WT fused) (protein)
chain: GNCTHFPVGQSHMLLELRTAFSQVKTFFQTKDQLDNILLTDSLMQDFKGYLGCQALSEMIQFYLVEVMPQAEKHGPEIKEHLNSLGEKLKTLRMRLRRCHRFLPCENKSKAVEQVKSDFNKLQDQGVYKAMNEFDIFINCIEAYMMIKMKSSRGQYSREDNQYSREDNSCTHFPVGQSHMLLELRTAFSQVKTFFQTKDQLDNILLTDSLMQDFKGYLGCQALSEMIQFYLVEVMPQAEKHGPEIKEHLNSLGEKLKTLRMRLRRCHRFLPCENKSKAVEQVKSDFNKLQDQGVYKAMNEFDIFINCIEAYMMIKMKS
B6: SS0051_AA (mIL10 T100L fused) (protein)
chain: B5 chain with T91L, T258L
B7: mIL10 WT (protein)
chain: SRGQYSREDNNCTHFPVGQSHMLLELRTAFSQVKTFFQTKDQLDNILLTDSLMQDFKGYLGCQALSEMIQFYLVEVMPQAEKHGPEIKEHLNSLGEKLKTLRMRLRRCHRFLPCENKSKAVEQVKSDFNKLQDQGVYKAMNEFDIFINCIEAYMMIKMKS
B8: mIL10 T100L (protein)
chain: B7 chain with T100L

Target: T1, hIL10RalphaFc
Assay: SPR

Binder | Kd [nM]
B1 | 0.26
B2 | 0.06
B3 | 0.11
B4 | 0.07

Target: T2, mIL10RalphaFc
Assay: SPR

Binder | Kd [nM]
B5 | 0.86
B6 | 0.73
B7 | 0.81
B8 | 1.92
